Experimental data reported in paper PMC7148328.

Molecular target: T1, His-Dbv6 (Nonomuraea gerenzanensis) (UniProt Q7WZ85)
T1 sequence: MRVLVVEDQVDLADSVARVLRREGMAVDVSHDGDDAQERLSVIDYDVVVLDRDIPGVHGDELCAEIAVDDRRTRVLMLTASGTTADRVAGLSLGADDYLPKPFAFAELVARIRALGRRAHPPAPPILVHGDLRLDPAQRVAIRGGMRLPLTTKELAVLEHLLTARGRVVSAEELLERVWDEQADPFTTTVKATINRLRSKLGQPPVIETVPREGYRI
Assay: EMSA
Conditions: 12.5 mM Tris-HCl pH 7.5, 10% glycerol, 62.5 mM KCl, 0.75 mM DTT, 5 mM MgCl2, 20 uL, 4 C; 2.8-14 ug Dbv6 (legend: 0.5-2 mM), 100 ng DNA (legend: …)

Row | Sequence | binding
1 | CATTCGTGTCGCCGTCTCGATCGGGGGCTGTCAGTCTGACACCATAGCTCGCGTCCGGTCGATCCTCGAGTTGCCGTCGGGGACGGGCGGGACGTGCCAGCCGTGGAAGCGCAGTGCCTCGGTGAGCCGGCCGGTGTCCTCCGGGCGCACGGAGACCTCGACCA (double strand) [updbv6] | no binding
2 | CCTTCAGCAAACCTCCGAACGGCGACACTATGGCCATGCGGGACTCCTCTCACACGCGCACGCAAGTCAGCGACCTCAATCGTGCTGAGCGGAGCCGATGTCCACGAGTGGGTCCAACTGAACAGTTCGCGCGCTTGGACGCGTTCACCGGTGGTGGTGACCAAGCGTTCACCTGGAC (double strand) [updbv23] | binds
3 | GCAGGAATGGGAAAGGATCTTGCGCGGAGTGCCGCCGCATTGGGGCACCGTTGTCGCGAGATGCGCCAGGGATCATGCCCAGATCTGGGCAGCGTTCGCGGATCGCCTGGAGGGGCGGGCGACCGATCTGGCCGCTGGATGAGCACGAGTGGATGAGCCGGGCGGCCGTATGTAGAGCGACGGGACCAGGACCAGATCAGGCACACGGCAAACCAAGTCGACGAACCGCTTGGGGGACGAGCAAGAGTGCTGTTCGGGCGAGATCGTGAACTGAAGAGTCTGACGAGGTTGCTCGATTC (double strand) [updbv3] | binds
4 | GCAGGTCGGAAGGGACATCTGTTCGGTGGGTGCCGGGCGCTCCATGGCAACTCCCGCGTCATCGAGGTGCTGCGCAGCCCTCGAAGGTCGCACCCGCGGACGAGAGCCTGCTTGATCGCAAGCGTGCTCAACGGACTCGATGTCTACAAGCCGGTCCAGGTGAACGCTTGGTCAC (double strand) [updbv24] | binds
5 | GCATCGGTCTTATCCGAAACTAGGGGGGTGGATGTCCGGGATAGGGGGTGGTTCGACCTGCACAGCCTCCTTTAACCTTCCGGAGGAAGGCCTAACCGAAAGTCGGAGTGATCGGAATGCTAACGGGAAGCGTTCTGCAATTCGATGAGGTAGACGGCTACGGATTCGCGGCGACAGCGTCCAATTCTTTGCCGCGTGGAGTTGCCGAAGAAAAGAGGATGCGACG (double strand) [updbv4] | binds
6 | TGAAGGCGACGATCAACCGGCTGCGCTCGAAGCTCGGCCAGCCGCCGGTGATCGAAACCGTCCCGCGCGAGGGATATCGCATCTGATCCGCGCGGTCACAGAGCGGTCACACGTTCTCTGACCCTCGTGTCACCTTCTGCTCCGTAGAACTGGTGTCAGATCACCAGACTGGAGGAGAGGGATGAGGA (double strand) [updbv7] | binds
